# IntAct's records for PubMed 22246185
# B1: Apoptotic protease-activating factor 1 (Homo sapiens), O14727 (parent)
# chain: MDAKARNCLLQHREALEKDIKTSYIMDHMISDGFLTISEEEKVRNEPTQQQRAAMLIKMILKKDNDSYVSFYNALLHEGYKDLAALLHDGIPVVSSSSGKDSVSGITSYVRTVLCEGGVPQRPVVFVTRKKLVNAIQQKLSKLKGEPGWVTIHGMAGCGKSVLAAEAVRDHSLLEGCFPGGVHWVSVGKQDKSGLLMKLQNLCTRLDQDESFSQRLPLNIEEAKDRLRILMLRKHPRSLLILDDVWDSWVLKAFDSQCQILLTTRDKSVTDSVMGPKYVVPVESSLGKEKGLEILSLFVNMKKADLPEQAHSIIKECKGSPLVVSLIGALLRDFPNRWEYYLKQLQNKQFKRIRKSSSYDYEALDEAMSISVEMLREDIKDYYTDLSILQKDVKVPTKVLCILWDMETEEVEDILQEFVNKSLLFCDRNGKSFRYYLHDLQVDFLTEKNCSQLQDLHKKIITQFQRYHQPHTLSPDQEDCMYWYNFLAYHMASAKMHKELCALMFSLDWIKAKTELVGPAHLIHEFVEYRHILDEKDCAVSENFQEFLSLNGHLLGRQPFPNIVQLGLCEPETSEVYQQAKLQAKQEVDNGMLYLEWINKKNITNLSRLVVRPHTDAVYHACFSEDGQRIASCGADKTLQVFKAETGEKLLEIKAHEDEVLCCAFSTDDRFIATCSVDKKVKIWNSMTGELVHTYDEHSEQVNCCHFTNSSHHLLLATGSSDCFLKLWDLNQKECRNTMFGHTNSVNHCRFSPDDKLLASCSADGTLKLWDATSANERKSINVKQFFLNLEDPQEDMEVIVKCCSWSADGARIMVAAKNKIFLFDIHTSGLLGEIHTGHHSTIQYCDFSPQNHLAVVALSQYCVELWNTDSRSKVADCRGHLSWVHGVMFSPDGSSFLTSSDDQTIRLWETKKVCKNSAVMLKQEVDVVFQENEVMVLAVDHIRRLQLINGRTGQIDYLTEAQVSCCCLSPHLQYIAFGDENGAIEILELVNNRIFQSRFQHKKTVWHIQFTADEKTLISSSDDAEIQVWNWQLDKCIFLRGHQETVKDFRLLKNSRLLSWSFDGTVKVWNIITGNKEKDFVCHQGTVLSCDISHDATKFSSTSADKTAKIWSFDLLLPLHELRGHNGCVRCSAFSVDSTLLATGDDNGEIRIWNVSNGELLHLCAPLSEEGAATHGGWVTDLCFSPDGKMLISAGGYIKWWNVVTGESSQTFYTNGTNLKKIHVSPDFKTYVTVDNLGILYILQTLE
# Variants of: B1
# Conditions: with 1433e_human YWHAE
row,effect of a mutation on the interaction,Variant
1,decreasing interaction,S268A

# Variants of: B1
# Conditions: with 1433e_human YWHAE
# Remark: another data set of the same source
row,effect of a mutation on the interaction,Variant
1,decreasing interaction,S357A
